Assay results published in paper PMC5776092.

Biological target: cysteine deficient variant of the human neuropeptide Y receptor type 2 (Y2R), refolded and reconstituted into DMPC/DHPC-c7 bicelles (human) (UniProt P49146)

## pre-assembled Gαi1β1γ1 heterotrimer (from UniProt P10824 1-354; P62871 1-340; P02698 1-74) (complex)
  apparent GTPγS binding rate k of Gαi1 (intrinsic W211 tryptophan fluorescence, nucleotide exchange), Y2R in isotropic bicelles activated with 10 fold excess of NPY, 16°C: 0.06 s⁻¹
  apparent GTPγS binding rate k of Gαi1 (intrinsic W211 tryptophan fluorescence, nucleotide exchange), Y2R in non-isotropic bicelles activated with 10 fold excess of NPY, 16°C: 0.045 s⁻¹
